The values that follow come from the Immune Epitope Database (IEDB).

The target in one assay is HLA-A*01:01. The assay can be described thus: IEDB peptide-MHC binding, purified MHC/competitive/radioactivity; filed as Kd, often an IC50 or EC50 that approximates it; ≥ and ≤ were set here for values at or beyond the usual limits of such assays.
The next assay concerns the target HLA-A*23:01. Described as above.
The target in the next assay is HLA-A*24:02. Described as above.
For a further assay, the target named is HLA-A*26:01. The assay is described as above.
A further assay concerns the target HLA-A*29:02. The assay is described as above.
Another assay concerns the target HLA-A*30:02. Described as above.
In a further assay the target is HLA-A*02:01. The assay can be described thus: IEDB peptide-MHC binding, purified MHC/competitive/fluorescence; filed as Kd, often an IC50 or EC50 that approximates it; ≥ and ≤ were set here for values at or beyond the usual limits of such assays.
A further assay deals with HLA-A*69:01. The assay can be described thus: IEDB peptide-MHC binding, purified MHC/direct/fluorescence; filed as Kd, often an IC50 or EC50 that approximates it; ≥ and ≤ were set here for values at or beyond the usual limits of such assays. The following applies: source organism: Mammarenavirus lassaense.
The mark [1] stands for this setting: source organism: SARS coronavirus Tor2.
Setting [2] is: source organism: Mammarenavirus lassaense.
Where [3] appears, read: source organism: Lymphocytic choriomeningitis virus (strain Armstrong).
The mark [4] stands for this setting: source organism: Mammarenavirus machupoense.
Where [5] appears, read: source organism: Mammarenavirus mopeiaense.
[6] abbreviates: source organism: Mammarenavirus guanaritoense.
Setting [7] is: source organism: Mammarenavirus whitewaterense.

For the sequence ADAGFMKQY, the Kd in the assay with HLA-A*01:01 (setting [1]) is at least 87.7 µM; with HLA-A*23:01 (setting [1]), at least 77.8 µM; with HLA-A*24:02 (setting [1]), at least 77.6 µM; with HLA-A*26:01 (setting [1]), at least 81.5 µM; with HLA-A*29:02 (setting [1]) it was 15.3 µM; with HLA-A*30:02 (setting [1]), at least 46.2 µM.

As for AGFAAGLTY, the Kd is at least 38.5 µM with HLA-A*01:01 (setting [2]); at least 39.2 µM in the assay with HLA-A*23:01 (setting [2]); at least 77.5 µM with HLA-A*24:02 (setting [2]); at least 61.8 µM with HLA-A*26:01 (setting [2]); 6.13 µM in the assay with HLA-A*29:02 (setting [2]); 0.178 µM with HLA-A*30:02 (setting [2]).

ALSPPLLLL showed a Kd with HLA-A*02:01 (source organism: Escherichia coli E22) of 0.157 µM.

Take AMISLAKKI: the Kd with HLA-A*02:01 (source organism: Vaccinia virus WR 65-16) amounted to 0.903 µM.

For CFANKHAGF, the Kd with HLA-A*01:01 (setting [1]) is at least 78.1 µM; in the assay with HLA-A*23:01 (setting [1]) it was 0.105 µM; with HLA-A*24:02 (setting [1]) it was 0.0274 µM; in the assay with HLA-A*26:01 (setting [1]) it was 11.8 µM; with HLA-A*29:02 (setting [1]), 0.0288 µM; with HLA-A*30:02 (setting [1]), 6.62 µM.

Take CMLDGGNML: the Kd with HLA-A*69:01 is at least 20 µM; with HLA-A*02:01 (source organism: Lassa virus Josiah), 0.00297 µM.

CYSSVNDRLV: the Kd was 11.1 µM in the assay with HLA-A*01:01 (setting [3]); 1.87 µM with HLA-A*23:01 (setting [3]); 1.13 µM with HLA-A*24:02 (setting [3]); at least 69.7 µM with HLA-A*26:01 (setting [3]); 13 µM in the assay with HLA-A*29:02 (setting [3]); 3.96 µM in the assay with HLA-A*30:02 (setting [3]).

Take EFLTRNPAW: the Kd was at least 78.1 µM in the assay with HLA-A*01:01 (setting [1]); at least 84.5 µM with HLA-A*23:01 (setting [1]); at least 84.5 µM with HLA-A*24:02 (setting [1]); at least 69 µM in the assay with HLA-A*26:01 (setting [1]); at least 45.2 µM with HLA-A*29:02 (setting [1]); at least 100 µM with HLA-A*30:02 (setting [1]).

On to EYFMCFKYLL, for which the figures for the Kd with HLA-A*23:01 (setting [4]), with HLA-A*24:02 (setting [4]) and with HLA-A*29:02 (setting [4]) were 0.0093 µM, 0.192 µM and 0.049 µM, respectively.

Turning to FLHEDLEKL, the Kd in the assay with HLA-A*02:01 (source organism: unidentified) worked out at 0.01 µM.

Consider GTDLEGKFY, for which the equilibrium dissociation constant (Kd) in the assay with HLA-A*01:01 (setting [1]) was 0.0334 µM; with HLA-A*23:01 (setting [1]) it was at least 77.8 µM; in the assay with HLA-A*24:02 (setting [1]), at least 77.6 µM; with HLA-A*26:01 (setting [1]) it was at least 38.8 µM; with HLA-A*29:02 (setting [1]), 0.273 µM; in the assay with HLA-A*30:02 (setting [1]), 1.39 µM.

On to GYTMHANYI, for which the dissociation constant (Kd) in the assay with HLA-A*01:01 (setting [1]) is at least 78.1 µM; with HLA-A*23:01 (setting [1]), 6.96 µM; with HLA-A*24:02 (setting [1]), 13.5 µM; with HLA-A*26:01 (setting [1]), at least 77.9 µM; with HLA-A*29:02 (setting [1]) it was at least 88.2 µM; with HLA-A*30:02 (setting [1]), at least 78.9 µM.

With GYVTHGFNL, the Kd with HLA-A*01:01 (setting [1]) was at least 78.1 µM; with HLA-A*23:01 (setting [1]), 0.234 µM; in the assay with HLA-A*24:02 (setting [1]), 1.21 µM; with HLA-A*26:01 (setting [1]), at least 77.9 µM; with HLA-A*29:02 (setting [1]) it was 0.839 µM; in the assay with HLA-A*30:02 (setting [1]), at least 78.9 µM.

As for GYVVSNFEGV, the Kd is at least 70.4 µM with HLA-A*01:01 (setting [4]); at least 70 µM with HLA-A*23:01 (setting [4]); at least 70.3 µM with HLA-A*24:02 (setting [4]); at least 69.7 µM with HLA-A*26:01 (setting [4]); at least 70.8 µM in the assay with HLA-A*29:02 (setting [4]); at least 69.7 µM with HLA-A*30:02 (setting [4]).

With HFAIGLALY, the Kd was at least 119 µM with HLA-A*01:01 (setting [1]); 11.5 µM with HLA-A*23:01 (setting [1]); 11.1 µM with HLA-A*24:02 (setting [1]); 0.24 µM with HLA-A*26:01 (setting [1]); 0.00471 µM with HLA-A*29:02 (setting [1]); 0.0132 µM with HLA-A*30:02 (setting [1]).

With IKIPTHRHI, the Kd is 16.6 µM with HLA-A*01:01 (setting [5]); at least 24.8 µM with HLA-A*23:01 (setting [5]); at least 57.1 µM with HLA-A*24:02 (setting [5]); at least 77.9 µM in the assay with HLA-A*26:01 (setting [5]); at least 78.9 µM with HLA-A*29:02 (setting [5]); at least 76.9 µM with HLA-A*30:02 (setting [5]).

ILFPDDVQEL: the Kd with HLA-A*02:01 (source organism: Vaccinia virus WR) came to 0.0011 µM.

For the sequence IRHLFGNYI, the Kd with HLA-A*01:01 (setting [6]) is at least 22.2 µM; with HLA-A*23:01 (setting [6]), at least 22.1 µM; in the assay with HLA-A*24:02 (setting [6]), at least 43.7 µM; in the assay with HLA-A*26:01 (setting [6]) it was at least 77.9 µM; with HLA-A*29:02 (setting [6]), 0.571 µM; with HLA-A*30:02 (setting [6]), at least 24.1 µM.

As to KVDTTHVSKV, the Kd with HLA-A*02:01 (source organism: Myxoma virus) was found to be 0.0423 µM.

Consider LFADINGKL, for which the Kd with HLA-A*01:01 (setting [1]) was at least 78.1 µM; with HLA-A*23:01 (setting [1]), 1.3 µM; with HLA-A*24:02 (setting [1]) it was 0.722 µM; with HLA-A*26:01 (setting [1]) it was at least 41.7 µM; in the assay with HLA-A*29:02 (setting [1]) it was 0.47 µM; in the assay with HLA-A*30:02 (setting [1]), 4.34 µM.

Consider LQFIVFLLL, for which the Kd with HLA-A*23:01 (setting [7]) is 11.3 µM; with HLA-A*24:02 (setting [7]) it was at least 77.5 µM; with HLA-A*29:02 (setting [7]) it was 4.67 µM.

Turning to LRIPTHRHI, the Kd is at least 25.7 µM with HLA-A*01:01 (setting [7]); at least 71.5 µM with HLA-A*23:01 (setting [7]); at least 77.5 µM in the assay with HLA-A*24:02 (setting [7]); at least 77.9 µM with HLA-A*26:01 (setting [7]); at least 33.7 µM with HLA-A*29:02 (setting [7]); at least 76.9 µM with HLA-A*30:02 (setting [7]).
